The subject of the data set is MS2 coat protein. Nature of the data set: apparent KD of MS2 coat protein; designed switch direction (-1 OFF switch, 1 ON switch): -1; higher = weaker reporter binding. A digest of the protocol:
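Designed RNA switches sharing common flanks were transcribed on Illumina chips by stalled E. coli RNA polymerase. They were titrated with SNAP-549-labelled MS2 coat protein, from 0.7 or 1.5 nM doubling to 3 µM, in Tris-HCl pH 7.5 buffer with KCl, MgCl2, BSA, DTT, tRNA and Tween-20. Titrations ran without input, with 200 uM small-molecule ligand, or with an oligonucleotide input. The apparent KD of each design is the median over its clusters, after curve-fitting of normalised cluster fluorescence.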

[1] abbreviates: Eterna round: R95, input ligand: microRNA oligo, concentration not stated.
Where [2] appears, read: Eterna round: R95, input ligand: FMN 200 uM.
The mark [3] stands for this setting: Eterna round: R95, input ligand: none.
The mark [4] stands for this setting: input ligand: microRNA oligo, concentration not stated.

In the case of “UAUUAGCAAGCGAGAUCCCACAUGAGGAUCACCCAUGUGCUCGUCUUAUAUAAGGUACUGUACGAUAGUACGGUACC [Mat - Sensor, turn-off var - Eli Mod - D28] (Eterna round: R97, puzzle: Sensor, turn-off variant 1)”, the “apparent KD of MS2 coat protein” value (input ligand: FMN 200 uM) is 16.7 nM and the “apparent KD of MS2 coat protein” value (input ligand: none) was 14.6 nM.

Regarding “UAUUAGCAAGCGAGAUCCCACAUGAGGAUCACCCAUGUGCUCGUGCAUCCAGAAUUACUGGGUGCAGCUCGUCUUAU [Winner reversed engineered 12] (Eterna round: R97, puzzle: Sensor, turn-off variant 1)”, the “apparent KD of MS2 coat protein” value came out at 14.9 nM (input ligand: FMN 200 uM) and 14.7 nM (input ligand: none).

As to “UAUUAGCAAGCGAGUCUUCACAUGAGGAUCACCCAUGUGCUCGUCUUAUAAGGUACUGUGACGAAAGUCACGGUACC [Eli 91 v32] (Eterna round: R97, puzzle: Sensor, turn-off variant 1)”, the “apparent KD of MS2 coat protein” value is, setting by setting: (input ligand: FMN 200 uM) 15.4 nM; (input ligand: none) 14.8 nM.

Consider “UAUUAGCAAGUAAGAUCCCACAUGAGGAUCACCCAUGUGCUCGUCAUAUCAGGUACGGAGCGGAAACUCCCGAUAUG [Sensor-V1 #89] (Eterna round: R97, puzzle: Sensor, turn-off variant 1)”, for which the “apparent KD of MS2 coat protein” value turned out to be 106 nM (input ligand: FMN 200 uM) and 95.9 nM (input ligand: none).

On to “UAUUAGCAAGUGAGGUCCCACAUGAGGAUCACCCAUGUGCUCGUCUUAUAAGGUACUGUGACGAUAGUCACGGUACC [Mat - Sensor, turn-off var - Eli Mod - D51] (Eterna round: R97, puzzle: Sensor, turn-off variant 1)”, for which the “apparent KD of MS2 coat protein” value reads like this: (input ligand: FMN 200 uM) 45.4 nM; (input ligand: none) 45.5 nM.

Regarding “UAUUAGCUAGGAUAUACAUGAGGAUCACCCAUGUCACGGGUCAACUUGUCCUAUGCGUGUAGAAGGAGCGACCC [JL Ceriza mod 5] (puzzle: Exclusion 3)”, under setting [1], the “apparent KD of MS2 coat protein” value amounted to 18.8 nM.

“UAUUAGUUAGGAUAUACAUGAGGAUCACCCAUGUCACGGGUCCACUUGUCCUAUGCGUGUAGAAGGAGCGACCC [JL Ceriza mod 4] (puzzle: Exclusion 3)”: the “apparent KD of MS2 coat protein” value under setting [1] was determined as 19.2 nM.

Consider “UAUUAUCAAGCAAGAUCCCACAUGAGGAUCACCCAUGUGCUCGUCUUAUUUCCGGCCUUAUUGGGCUCUCGUCUAAU [JR_STOV1_v2_Sub094] (Eterna round: R97, puzzle: Sensor, turn-off variant 1)”, for which the “apparent KD of MS2 coat protein” value runs as follows: (input ligand: FMN 200 uM) 34 nM; (input ligand: none) 33.5 nM.

With “UAUUAUCAAGCUAGAUCCCACAUGAGGAUCACCCAUGUGCUCGUCUUAAUUCCAGAAUUACUGGGCUCUCGUCUUAU [JR_STOV1_Sub091] (Eterna round: R97, puzzle: Sensor, turn-off variant 1)”, the “apparent KD of MS2 coat protein” value by setting is: (input ligand: FMN 200 uM) 45.5 nM; (input ligand: none) 45.1 nM.

Take “UAUUCUAGAUAGGAUAUACUUUUUUUUUUUUUCGUAGAAGGAUCUACAUGAGGAUCACCCAUGUUAACAGCAGU [JR_E6_Sub010] (puzzle: Exclusion 6)”: the “apparent KD of MS2 coat protein” value is, setting by setting: under setting [2], 66.5 nM; under setting [1], 51.6 nM; under setting [3], 40.4 nM.

Take “UAUUUAUAGCAAGGAUAUGAUUAUUAUUAUUUAUCAGAAGGUGCACAUGAGGAUCACCCAUGUUUUAUAAUUUGUAAUUUAAUU [Title] (Eterna round: R96, puzzle: Exclusion NG 1)”: the “apparent KD of MS2 coat protein” value under setting [4] was found to be 40.9 nM.

In the case of “UAUUUGCAAGGAUAUGAUUUAAGUAACAUGAGGAUCACCCAUGUUUAUCCGUUGUUAUGUUCAGAAGGUGCGUGAU [JR_E5_Sub019] (puzzle: Exclusion 5)”, under setting [1], the “apparent KD of MS2 coat protein” value is 50.2 nM.

Take “UCAACCAGAGGAUAUGCGCAUAGAUCAGACUUUGUUUCUGAACAUGAGGAUCACCCAUGUAGAAGGCUGUAACC [Ex2 #78] (Eterna round: R97, puzzle: Exclusion 2)”: the “apparent KD of MS2 coat protein” value reads like this: (input ligand: FMN 200 uM) 28.5 nM; (input ligand: none) 27.1 nM.

Turning to “UCACCGCAAGGAUAUACUUGCGGUGAUGUUCGAAUCUUUCUACUUGAGGAUCACCCAAGUAGAAGGUGCGGUGA [jl-ex2.4.69 ViennaUCT mod] (Eterna round: R97, puzzle: Exclusion 2)”, the “apparent KD of MS2 coat protein” value runs as follows: (input ligand: FMN 200 uM) 15.4 nM; (input ligand: none) 12.2 nM.

Take “UCACGCACUGUUAGGAUAUGUAUUAUGAAGGUAGUACAGAAGGAACAUGAGGAUCACCCAUGUAAUCCUGGGUG [Eternabot (L1) Solution 61] (Eterna round: R97, puzzle: Brourd's mod of Exclusion 4)”: the “apparent KD of MS2 coat protein” value by setting is: (input ligand: FMN 200 uM) 726 nM; (input ligand: none) 93.1 nM.

For the sequence “UCACGGGACUAAGGAUAUACAUGAACCAUUUUUGUAGAAGGUAGAAUGUUUGAUCAUAAACUAAACAUGAGGAUCACCCAUGUU [JR_ExcNG1_Sub090] (Eterna round: R96, puzzle: Exclusion NG 1)”, the “apparent KD of MS2 coat protein” value under setting [4] stood at 16.9 nM.

Turning to “UCAUACGGUGAGGAUAUCUCCGCUAAAGUGUGUAGAGAAGGCGCUACAUGAGGAUCACCCAUGUUUGUGGGCAG [Ex-6 Malc#11] (puzzle: Exclusion 6)”, the “apparent KD of MS2 coat protein” value under setting [1] was 421 nM.

On to “UCAUACGUUGAGGAUAUCUCAGUUAGAAUAUUUAGAGAAGGCGAUACAUGAGGAUCACCCAUGUUUAUGGGCAU [Ex-6 Malc#6] (puzzle: Exclusion 6)”, for which the “apparent KD of MS2 coat protein” value runs as follows: under setting [2], 346 nM; under setting [1], 286 nM; under setting [3], 461 nM.

With “UCAUCGCAAGGAUAUACUUGCGGUGAUGUUCGAAUUCUUCUACUUGAGGAUCACCCAAGUAGAAGGUGCGAUGA [jl-ex2.4.63 ViennaUCT mod] (Eterna round: R97, puzzle: Exclusion 2)”, the “apparent KD of MS2 coat protein” value runs as follows: (input ligand: FMN 200 uM) 13.2 nM; (input ligand: none) 13.5 nM.

On to “UCAUGGUAGCAGGAUAUGCUAUUUAUUUUUUAUGCAGAAGGGCUUACAUGAGGAUCACCCAUGUGUUAGGUUUA [JR_E6_Sub072] (puzzle: Exclusion 6)”, for which the “apparent KD of MS2 coat protein” value under setting [1] is 81.3 nM.

Turning to “UCAUGUAUGUAGGAUAUCGAUGUCGAAAGACAUCGAGAAGGACGUACAUGAGGAUCACCCAUGUAACUUGCAUG [Exclusion 6 - B - 11:a] (puzzle: Exclusion 6)”, the “apparent KD of MS2 coat protein” value under setting [2] turned out to be 12.9 nM, the “apparent KD of MS2 coat protein” value under setting [1] came to 18.8 nM and the “apparent KD of MS2 coat protein” value under setting [3] was 12.9 nM.

As for “UCCCGGGUAGGAUAUGCUAGGGUAUGUUCACUUGAUUUAGGACAUGAGGAUCACCCAUGUAGAAGGGCCCGUCG [Eternabot (L1) Solution 25] (Eterna round: R97, puzzle: Exclusion 2)”, the “apparent KD of MS2 coat protein” value runs as follows: (input ligand: FMN 200 uM) 286 nM; (input ligand: none) 459 nM.

On to “UCCUCACAUGAGGAUCACCCAUGUUAGGAUAUCCACCGUUGAUGGUGCCGAAUCGGUAGGAGAAGGAACAUACA [EX1 B.18] (Eterna round: R97, puzzle: Exclusion 1)”, for which the “apparent KD of MS2 coat protein” value was 58.8 nM (input ligand: FMN 200 uM) and 24.1 nM (input ligand: none).

Turning to “UCGACGUAAGGAUAUAUAAGGAACGAAGUAAGUUGUAGAAAAUAGAAGGUACAUGAGGAUCACCCAUGUUAAGA [JR_Exclu4_Sub061] (puzzle: Exclusion 4)”, the “apparent KD of MS2 coat protein” value came out at 19.4 nM under setting [2], 19.6 nM under setting [1] and 18.9 nM under setting [3].

As for “UCGACUACAGUAGGAUAUGUAGGAUAUGUGGUUGAGGAUCACCCAACCACUUCAACGACAGAAGGACAGAAGGACUGACAUCGU [pwkr exNG2 2xFMN 1xF5.4] (Eterna round: R96, puzzle: Exclusion NG 2)”, the “apparent KD of MS2 coat protein” value (input ligand: FMN 200 uM) was 21.5 nM, the “apparent KD of MS2 coat protein” value under setting [4] was found to be 14.2 nM and the “apparent KD of MS2 coat protein” value (input ligand: none) stood at 20.4 nM.

As to “UCGCUCCGUGUAGGAUAUCGCCGUUCUAUUCGGCGAGAAGGACAUGAGGAUCACCCAUGUAUGUUAUUAUCACGCGUGGCGCAC [Design 57] (Eterna round: R96, puzzle: Exclusion NG 1)”, the “apparent KD of MS2 coat protein” value runs as follows: (input ligand: FMN 200 uM) 21.5 nM; under setting [4], 13.9 nM; (input ligand: none) 19.6 nM.

With “UCGCUGCGAGGAUAUACGUGCGCGCGCGCGCGCGCGCGCGUACAUGAGGAUCACCCAUGUAGAAGGCGCUCUGC [Apr-15 SS2-2] (puzzle: Exclusion 2)”, the “apparent KD of MS2 coat protein” value under setting [1] worked out at 22.9 nM.

Turning to “UCGUCGUCGUCAGGAUAUAGUCUUAUUGUUAUGCUUUUGUUCGUACAUGAGGAUCACCCAUGUGGCUAGAAGGGACUAAAGUUU [JR_ExcNG2_Sub017] (Eterna round: R96, puzzle: Exclusion NG 2)”, the “apparent KD of MS2 coat protein” value turned out to be 19.3 nM (input ligand: FMN 200 uM), 17.2 nM under setting [4] and 23 nM (input ligand: none).

“UCGUGUAUAGAGGAUAUAUUAUUUUUUAAAACAAUAGAAGGCUAAACAUGAGGAUCACCCAUGUAUUUGGUUUU [JR_Ex6_Sub053] (Eterna round: R97, puzzle: Exclusion 6)”: the “apparent KD of MS2 coat protein” value is 82.1 nM (input ligand: FMN 200 uM) and 19.6 nM (input ligand: none).

For “UCGUGUAUAGAGGAUAUAUUAUUUUUUUUAACAAUAGAAGGCUAAACAUGAGGAUCACCCAUGUAUUUGGUUUU [JR_Ex6_Sub051] (Eterna round: R97, puzzle: Exclusion 6)”, the “apparent KD of MS2 coat protein” value (input ligand: FMN 200 uM) is 69.2 nM and the “apparent KD of MS2 coat protein” value (input ligand: none) stood at 22.9 nM.

Regarding “UCUAGACAUGAGGAUCACCCAUGUGAGGAUAUGAUGCGAAUAAAGAAAGAAGAAAGCAUCAGAAGGCACAUAUG [Fiskers Ex 1 - 3] (puzzle: Exclusion 1)”, the “apparent KD of MS2 coat protein” value under setting [2] worked out at 210 nM, the “apparent KD of MS2 coat protein” value under setting [1] was 116 nM and the “apparent KD of MS2 coat protein” value under setting [3] came to 191 nM.

Turning to “UCUAGUUCAGGAUAUGUAGAUUUUAACAUGAGGAUCACCCAUGUAGAUCCUGAAUUAGCUACAGAAGGGAACAUUU [Mod of Brourd 2 - Jieux - Exclusion 5] (Eterna round: R97, puzzle: Exclusion 5)”, the “apparent KD of MS2 coat protein” value (input ligand: FMN 200 uM) turned out to be 18.1 nM and the “apparent KD of MS2 coat protein” value (input ligand: none) was found to be 13.3 nM.

Values taken from the supplement of paper PMC9170038.
